Changes are numbered by the printed parent chain.
B1: 20H5.A3-VH3VL1: anti-Gal3 antibody, VH SEQ ID NO: 814, VL SEQ ID NO: 829 (antibody, V domains shown)
VH: QIQLVQSGSELKKPGASVKVSCKASGYAFTTYGMSWVRQAPGQGLEWMGWVNTYSGVPTYADDFTGRFVFSLETSVSTAYLQISSLKAEDTAVYFCARGPYAMDYWGQGTLVTVSS
VL: DIQMTQSPSSLSASVGDRVTITCQASQDISNYLNWYQQKPGKAPKLLIYYTSSLLTGVPSRFSGSGSGTDYTFTISSLQPEDIATYYCQQYSKLPYTFGQGTKLEIK
modifications: VH-88 Peptide Sequence; VL-86 Peptide Sequence
B2: 20H5.A3-VH4VL1: anti-Gal3 antibody, VH SEQ ID NO: 816, VL SEQ ID NO: 831 (antibody, V domains shown)
VH: B1 VH with Y60S
VL: B1 VL
modifications: VH-90 Peptide Sequence; VL-88 Peptide Sequence
B3: 20H5.A3-VH6VL1: anti-Gal3 antibody, VH SEQ ID NO: 819, VL SEQ ID NO: 834 (antibody, V domains shown)
VH: B1 VH with I2V, S9F, V20I, Y60S, D62Q, D63A, E73D, F95Y
VL: B1 VL
modifications: VH-93 Peptide Sequence; VL-91 Peptide Sequence
B4: 20H5.A3-VH5VL3: anti-Gal3 antibody, VH SEQ ID NO: 818, VL SEQ ID NO: 833 (antibody, V domains shown)
VH: B1 VH with I2V, S9F, V20I, D62Q, D63A, E73D, F95Y
VL: B1 VL with Q24R, T56S, F73L, I83F
modifications: VH-92 Peptide Sequence; VL-90 Peptide Sequence
B5: 20H5.A3-VH5VL1: anti-Gal3 antibody, VH SEQ ID NO: 817, VL SEQ ID NO: 832 (antibody, V domains shown)
VH: B1 VH with I2V, S9F, V20I, D62Q, D63A, E73D, F95Y
VL: B1 VL
modifications: VH-91 Peptide Sequence; VL-89 Peptide Sequence
B6: 20H5.A3-VH3VL3: anti-Gal3 antibody, VH SEQ ID NO: 815, VL SEQ ID NO: 830 (antibody, V domains shown)
VH: B1 VH
VL: B1 VL with Q24R, T56S, F73L, I83F
modifications: VH-89 Peptide Sequence; VL-87 Peptide Sequence
B7: 20H5.A3-VH6VL3: anti-Gal3 antibody, VH SEQ ID NO: 820, VL SEQ ID NO: 835 (antibody, V domains shown)
VH: B1 VH with I2V, S9F, V20I, Y60S, D62Q, D63A, E73D, F95Y
VL: B1 VL with Q24R, T56S, F73L, I83F
modifications: VH-94 Peptide Sequence; VL-92 Peptide Sequence
B8: 2D10-hVH3-HVL4: anti-Gal3 antibody, VH SEQ ID NO: 813, VL SEQ ID NO: 828 (antibody, V domains shown)
VH: QVQLVQSGAEVKKPGASVKVSCKASGYTFTDYYINWVRQAPGQRLEWMGWIYPGSQDTKYSQKFQGRVTITVDTSASTAYMELSSLRSEDTAVYYCANYFGSSGWFFDVWGQGTMVTVSS
VL: DIVMTQSPLSLPVTLGQPASISCRSSKSLLHSDGITYLYWYQQRPGQSPQLLIYRMSNLDSGVPDRFSGSGSGTDFTLKISRVEAEDVGVYYCAQMIEFPLTFGQGTKLEIK
modifications: VH-87 Peptide Sequence; VL-85 Peptide Sequence
B9: 2D10-hVH4-HVL1: anti-Gal3 antibody, VH SEQ ID NO: 806, VL SEQ ID NO: 821 (antibody, V domains shown)
VH: B8 VH with S61N, Q62E, I70L, Y95F
VL: B8 VL with L15P, Q17E, Q42L, R44K, L59R, D60A
modifications: VH-80 Peptide Sequence; VL-78 Peptide Sequence
B10: 849.2D7: anti-Gal3 antibody (antibody, V domains shown)
VH: QVQLQQSGPQLVRPGASVKISCKASGYSFTNYWMHWVKQRPGQGLEWIGMIDPSDSETRLNQKFKDKATLTVDKSSSTAYMQLSSPTSEDSAVYYCATGRPDYWGQGTTLTVSS
VL: DIVMTQSHKFMSTSVGDRVSITCKASQDVSTAVAWYQQKPGQSPKLLIYWASTRHTGVPDRFTGSGSGTDYTLTISSVQAEDLALYYCQQHYSTPYTFGGGTKLEIK
B11: 849.5H1: anti-Gal3 antibody (antibody, V domains shown)
VH: QVQLKESGPVLVAPSQSLSITCTVSGFSLTSYGIHWVRQPPGKGLEWLGVIWAGGSTNYNSALMSRLSISKDNSKSQVFLKMNSLQIDDTAMYYCAKPPHDYDQAWFAYWGQGTLITVSA
VL: DIQMNQSPSSLSASLGDTITITCHASQNINVWLSWYQQKPGNIPKLLIYQASNLHTGVPSRFSGRGSGTGFTLTISSLQPEDIATYYCQQGQSSPFTFGSGTKLEIK
B12: 847.20H7: anti-Gal3 antibody (antibody, V domains shown)
VH: QVQLQQSGAELVRPGASVNLSCKASGYTFTNYWMNWVKQRPGQGLEWVGMIDPSDSETHYNQMFKDKATLTIDKSSSIAYMQLSSLTSEDSAVYYCARWGAMDYWGQGTSVTVSS
VL: B10 VL with F10I, A32T, Y36F, I48L, T94P, Y96F, G100S

These molecules were tested on GLUT4 translocation in L6 GLUT4myc myoblasts (assay: Insulin-stimulated GLUT4 translocation with Gal3 and anti-Gal3 antibody). Conditions: 30 μg/mL Gal3 pre-incubated with 60 μg/mL antibody, 100 nM insulin.
Assay type: cell-based, rat
Protocol: Rat L6 GLUT4myc myoblasts (Kerafast #ESK202-FP) express a Myc-tagged GLUT4 that can be detected with an anti-Myc antibody. These cells were grown in a 48-well plate in MEM u growth media (Gibco, #12-571-063)+10% fetal bovine serum (FBS; Corning #35-016-CV) until 90-95% confluence was reached. Cells were then washed in PBS and serum starved for 2 hours in MEM u growth media without FBS. Thirty (30) μg/mL recombinant human Gal3 (TrueBinding QCB200347) was pre-incubated with 60 μg/mL anti-Gal3 antibodies for 30 minutes before being added to the serum-starved cells for 1 hour at 37° C. At the end of incubation, half of the cells were treated with 100 nM insulin (Sigma-Aldrich #I5523-50MG) for 20 minutes while the other half acted as basal controls. After 20 minutes, cells were washed quickly with ice cold PBS twice, then incubated with 4% paraformaldehyde (Boster Bio #AR1068) for 10 minutes on ice followed by 10 minutes at room temperature. The cells were washed three times with PBS, then blocked with 0.5 mL 5% goat serum (Vector Laboratories #101098-382) in PBS for 15 minutes. After the blocking agent was aspirated from the cells, 1 μg/ml anti-Myc polyclonal antibody (Sigma-Aldrich #C-3956) in 5% goat serum was added for 1 hour. […] Primary antibody was aspirated away, and then cells washed 5 times with PBS. Next, cells (including background controls) were incubated with 1:1000 goat anti rabbit antibody secondary antibody (Abcam #Ab97051) in 5% Goat serum for 30 minutes at room temperature. After washing, cells were incubated with 400 μL of TMB (Thermo Scientific #PI34029) for 5 minutes, then 200 μL of 1N HCL (Avantor Performance #JT5620-2) was added to stop the reaction. 100 μL of the sample was transferred to a 96 well plate with duplicates transferred for each condition. Samples were read at 450 nm on a SpectraMax plate reader. […] The fold changes were plotted on GraphPad Prism and presented as mean (SEM) of the technical replicates. Statistical significance was determined using unpaired T-tests comparing samples treated with Gal3 and insulin with all other conditions.
For B1, the “effect on Gal3 block of insulin-stimulated GLUT4 translocation” value (“effect on Gal3 block” for short) was “reduce the ability of Gal3 to block insulin-dependent GLUT4 translocation”.
B2 was tested, and the “effect on Gal3 block” value was “reduce the ability of Gal3 to block insulin-dependent GLUT4 translocation”.
With B3 the “effect on Gal3 block” value was “reduce the ability of Gal3 to block insulin-dependent GLUT4 translocation”.
In the case of B4, the “effect on Gal3 block” value is reported as “reduce the ability of Gal3 to block insulin-dependent GLUT4 translocation”.
With B5 the “effect on Gal3 block” value was “reduce the ability of Gal3 to block insulin-dependent GLUT4 translocation”.
For B6, the “effect on Gal3 block” value was “reduce the ability of Gal3 to block insulin-dependent GLUT4 translocation”.
In the case of B7, the “effect on Gal3 block” value is reported as “reduce the ability of Gal3 to block insulin-dependent GLUT4 translocation”.
In the case of B8, the “effect on Gal3 block” value is reported as “reduce the ability of Gal3 to block GLUT4 translocation”.
In the case of B9, the “effect on Gal3 block” value is reported as “reduce the ability of Gal3 to block GLUT4 translocation”.

What follows are molecules tested against T1, human Gal3 (Homo sapiens, UniProt P17931) (assay: Epitope binning, sandwich format, SPR Carterra LSA (Example 8)). Conditions: not given.
T1 construct: 6xHis (linker-spaced) (C); purchased AcroBio (Acro Biosystems) GA3-H5129
T1 sequence (P17931 whole entry): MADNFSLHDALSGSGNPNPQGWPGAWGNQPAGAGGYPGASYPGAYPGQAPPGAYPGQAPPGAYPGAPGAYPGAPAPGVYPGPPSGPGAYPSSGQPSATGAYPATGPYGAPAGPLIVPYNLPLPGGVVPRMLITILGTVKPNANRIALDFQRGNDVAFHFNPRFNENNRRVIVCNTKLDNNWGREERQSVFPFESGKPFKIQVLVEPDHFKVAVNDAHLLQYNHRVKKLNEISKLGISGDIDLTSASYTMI
Assay type: binding
Protocol: The epitope binning assay was done in a sandwich format on the high-throughput SPR-based Carterra LSA unit (CarterraBio, Salt Lake City, Utah). First, the purified antibodies were diluted to 10 μg/ml concentration in 10 mM NaOAc (pH 5.0) and then were covalently coupled via amine group to HC200M chip activated by EDC and S-NHS to immobilize antibodies to different positions of a 384-spot array. One hundred thirty-eight binning cycles were run on the array of immobilized antibodies. In each cycle, first, human Gal3 (AcroBio GA3-H5129) was injected over the entire array to bind to different antibodies (primary antibody), followed by one antibody (secondary antibody) selected among the panel of 150 anti-GAL3 antibodies tested. At the end of each cycle, the array was regenerated by 10 mM Glycine (pH 2.0) to remove bound antigen and secondary antibody from the array. The data analysis was done using the Epitope software by CarterraBio.
For B10, the “epitope bin (mutual competitive binding for Gal3)” value was 10.
In the case of B11, the “epitope bin (mutual competitive binding for Gal3)” value is reported as 21.

What follows are molecules tested on Human Gal3 peptides (assay: Gal3 peptide binding ELISA (Example 8)). Conditions: antibody 5 μg/mL.
Protocol: Gal3 peptide binding activity of additional exemplary anti-Gal3 antibodies was assessed with the same peptides as described in FIG. 18 (SEQ ID NOs: 3-26). Human Gal3 peptides (LifeTein, custom order) and human Gal3 proteins (R&D Systems, 8259-GA; TrueBinding, QCB200349) were diluted in PBS (Corning, 21-030-CM) to concentrations of at least 100 μg/mL (peptides) or 1 μg/mL (proteins), and added to the wells of several 96-well ELISA plates (Thermo Fisher, 44-2404-21). After incubating the plates at 4° C. overnight, the plates were washed three times with PBST (PBS with 0.05% Tween 20 [VWR, 0777]). The plates were then blocked for an hour with 2% BSA (EMD Millipore, 126609) in PBST at room temperature with gentle rocking. Thereafter, the 2% BSA in PBST was discarded and Gal3-binding antibodies (reformatted hIgG4 [S228P]) were diluted in 2% BSA in PBST to concentrations of 5 μg/mL and added to the wells. The plates were incubated for an hour at room temperature with gentle rocking and then washed three times with PBST. Afterwards, Peroxidase AffiniPure F(ab′)2 Fragment Goat Anti-Human IgG (H+L) polyclonal antibody (Jackson ImmunoResearch, 109-036-003), was diluted in 2% BSA in PBST (1:4000) and added to the wells. The plates were incubated for 1 hour at room temperature with gentle rocking and then washed three times with PBST. TMB substrate (Thermo Scientific, 34029) was then added to each well. The reaction was stopped with 1M HCl (JT Baker, 5620-02) and read using a plate reader (Molecular Devices) at absorbance of 450 nm.
B10 was tested, and the “binding to any of the tested Gal3 peptides” value (shortened to “binding to any”) was “not found to bind”.
For B12, the “binding to any” value was “not found to bind”.
For B11, the “binding to any” value was “not found to bind”.

From patent US20220411514A1, “ANTI-GAL3 ANTIBODIES AND METHODS OF USE FOR INSULIN RESISTANCE” (TrueBinding, Inc., priority 2021, published 2022)
